Data as given in patent US20210054097A1 (Novo Nordisk, published 2021).
Where a chain is given by its changes, count along the chain named. Ends that are not written are not given here.

T1: FX activation peptide 12-mer SGEAPDSITWKP (human)
T1 peptide: SGEAPDSITWKP-biotin

T2: FX activation peptide 12-mer KPYDAADLDPTE (human)
T2 peptide: KPYDAADLDPTE-biotin

T3: FX activation peptide 12-mer TQPERGDNNLTR (human)
T3 peptide: TQPERGDNNLTR-biotin

T4: FX activation peptide 12-mer SSGEAPDSITWK (human)
T4 peptide: SSGEAPDSITWK-biotin

T5: FX activation peptide 12-mer NQTQPERGDNNL (human)
T5 peptide: NQTQPERGDNNL-biotin

T6: FX activation peptide 12-mer YDAADLDPTENP (human)
T6 peptide: YDAADLDPTENP-biotin

T7: FX activation peptide 12-mer ADLDPTENPFDL (human)
T7 peptide: ADLDPTENPFDL-biotin

T8: FX activation peptide 12-mer DAADLDPTENPF (human)
T8 peptide: DAADLDPTENPF-biotin

T9: FX activation peptide 12-mer WKPYDAADLDPT (human)
T9 peptide: WKPYDAADLDPT-biotin

T10: FX activation peptide 12-mer DLLDFNQTQPER (human)
T10 peptide: DLLDFNQTQPER-biotin

T11: FX activation peptide 12-mer LDFNQTQPERGD (human)
T11 peptide: LDFNQTQPERGD-biotin

T12: FX activation peptide 12-mer QTQPERGDNNLT (human)
T12 peptide: QTQPERGDNNLT-biotin

T13: FX activation peptide 12-mer LLDFNQTQPERG (human)
T13 peptide: LLDFNQTQPERG-biotin

T14: FX activation peptide 12-mer ATSSSGEAPDSI (human)
T14 peptide: ATSSSGEAPDSI-biotin

T15: FX activation peptide 12-mer ITWKPYDAADLD (human)
T15 peptide: ITWKPYDAADLD-biotin

T16: FX activation peptide 12-mer PDSITWKPYDAA (human)
T16 peptide: PDSITWKPYDAA-biotin

T17: FX activation peptide 12-mer FNQTQPERGDNN (human)
T17 peptide: FNQTQPERGDNN-biotin

T18: FX activation peptide 12-mer QATSSSGEAPDS (human)
T18 peptide: QATSSSGEAPDS-biotin

T19: FX activation peptide 12-mer PYDAADLDPTEN (human)
T19 peptide: PYDAADLDPTEN-biotin

T20: FX activation peptide 12-mer VAQATSSSGEAP (human)
T20 peptide: VAQATSSSGEAP-biotin

T21: FX activation peptide 12-mer DLDPTENPFDLL (human)
T21 peptide: DLDPTENPFDLL-biotin

T22: FX activation peptide 12-mer TWKPYDAADLDP (human)
T22 peptide: TWKPYDAADLDP-biotin

T23: FX activation peptide 12-mer SSSGEAPDSITW (human)
T23 peptide: SSSGEAPDSITW-biotin

T24: FX activation peptide 12-mer GEAPDSITWKPY (human)
T24 peptide: GEAPDSITWKPY-biotin

T25: FX activation peptide 12-mer SITWKPYDAADL (human)
T25 peptide: SITWKPYDAADL-biotin

T26: FX activation peptide 12-mer AQATSSSGEAPD (human)
T26 peptide: AQATSSSGEAPD-biotin

T27: FX activation peptide 12-mer AADLDPTENPFD (human)
T27 peptide: AADLDPTENPFD-biotin

T28: FX activation peptide 12-mer TSSSGEAPDSIT (human)
T28 peptide: TSSSGEAPDSIT-biotin

T29: FX activation peptide 12-mer SVAQATSSSGEA (human)
T29 peptide: SVAQATSSSGEA-biotin

T30: FX activation peptide 12-mer FDLLDFNQTQPE (human)
T30 peptide: FDLLDFNQTQPE-biotin

T31: FX activation peptide 12-mer TENPFDLLDFNQ (human)
T31 peptide: TENPFDLLDFNQ-biotin

T32: FX activation peptide 12-mer NPFDLLDFNQTQ (human)
T32 peptide: NPFDLLDFNQTQ-biotin

B1: Nb 701C06 (VHH)
VHH: EVQLVESGGGVVQPGGSLRLSCAASGRTFSTYAMGWFRQAPGKEREFVAAISRRGGRTYYADSVKGRFTISRDNSKNTVYLQMNSLRPEDTALYYCAADATARDGLLDYWGQGTLVTVSS
notes: monovalent Nanobody; not shown: C-terminal FLAG3 and HIS6 tag
B2: Nb 701D07 (VHH)
VHH: EVQLVESGGGVVQPGGSLRLSCAASGGTLSRYAMGWFRQAPGKEREFVAAITRRGSRTYYADSVKGRFTISRDNSKNTVYLQMNSLRPEDTALYYCAADLAPGDYALDYWGQGTLVTVSS
notes: as for B1
B3: Nb 702C12 (VHH)
VHH: B1 VHH with A23V, T31R, R57S, Y59N, A100Y, T101S, A102S, R103G, L106Y
notes: as for B1
B4: Nb 729A04 (VHH)
VHH: EVQLVESGGGVVQPGGSLRLSCAASGFTFSDYAMSWVRQAPGKGLEWVSGITSGGGRTYYADSVKGRFTISRDNSKNTLYLQMNSLRPEDTALYYCAAVRTLGLRGSYDYWGQGTLVTVSS
notes: as for B1

What was measured:
[1] = target: T1, FX activation peptide 12-mer …; test: peptide ELISA
Method: (§1) The peptides were C-terminally conjugated to biotin and 50 μL of 1 μg/mL peptide solution was used for immobilization in discrete wells of the microtiter plate which was pre-coated with 1 μg/mL streptavidin. Each well was washed with washing buffer (10 mM Tris, 150 mM NaCl, 2.5 mM CaCl₂, 0.05% Tween 20, pH 8.60) followed by addition of 50 μL of 2 μg/mL FLAG-tagged anti-FX Nanobody® or IgG antibody to be tested. After 1 hour non-bound Nanobody®/antibody was washed off using washing buffer.
(§2) Bound anti-FX activation peptide ligand was detected by first binding a HRP-labelled secondary antibody (for FLAG-tagged Nanobodies: Anti-FLAG mAb M2-Peroxidase (HRP) (Sigma Aldrich, US), for antibody: Fcγ Fragment Specific Peroxidase AffiniPure F(ab′)₂ Fragment Goat Anti-Human IgG (Jackson ImmunoResearch Laboratories, Inc., US), or Peroxidase AffiniPure Goat Anti-Mouse IgG (Jackson ImmunoResearch Laboratories, Inc., US)) for 1 hour, and then adding 100 μL TMB-1 ELISA substrate (Kem-En-Tec Diagnostics, Denmark).

[2] = target: T2, FX activation peptide 12-mer …; test: peptide ELISA
Method: as §1, §2

[3] = target: T3, FX activation peptide 12-mer …; test: peptide ELISA
Method: as §1, §2

[4] = target: T4, FX activation peptide 12-mer …; test: peptide ELISA
Method: as §1, §2

[5] = target: T5, FX activation peptide 12-mer …; test: peptide ELISA
Method: as §1, §2

[6] = target: T6, FX activation peptide 12-mer …; test: peptide ELISA
Method: as §1, §2

[7] = target: T7, FX activation peptide 12-mer …; test: peptide ELISA
Method: as §1, §2

[8] = target: T8, FX activation peptide 12-mer …; test: peptide ELISA
Method: as §1, §2

[9] = target: T9, FX activation peptide 12-mer …; test: peptide ELISA
Method: as §1, §2

[10] = target: T10, FX activation peptide 12-mer …; test: peptide ELISA
Method: as §1, §2

[11] = target: T11, FX activation peptide 12-mer …; test: peptide ELISA
Method: as §1, §2

[12] = target: T12, FX activation peptide 12-mer …; test: peptide ELISA
Method: as §1, §2

[13] = target: T13, FX activation peptide 12-mer …; test: peptide ELISA
Method: as §1, §2

[14] = target: T14, FX activation peptide 12-mer …; test: peptide ELISA
Method: as §1, §2

[15] = target: T15, FX activation peptide 12-mer …; test: peptide ELISA
Method: as §1, §2

[16] = target: T16, FX activation peptide 12-mer …; test: peptide ELISA
Method: as §1, §2

[17] = target: T17, FX activation peptide 12-mer …; test: peptide ELISA
Method: as §1, §2

[18] = target: T18, FX activation peptide 12-mer …; test: peptide ELISA
Method: as §1, §2

[19] = target: T19, FX activation peptide 12-mer …; test: peptide ELISA
Method: as §1, §2

[20] = target: T20, FX activation peptide 12-mer …; test: peptide ELISA
Method: as §1, §2

[21] = target: T21, FX activation peptide 12-mer …; test: peptide ELISA
Method: as §1, §2

[22] = target: T22, FX activation peptide 12-mer …; test: peptide ELISA
Method: as §1, §2

[23] = target: T23, FX activation peptide 12-mer …; test: peptide ELISA
Method: as §1, §2

[24] = target: T24, FX activation peptide 12-mer …; test: peptide ELISA
Method: as §1, §2

[25] = target: T25, FX activation peptide 12-mer …; test: peptide ELISA
Method: as §1, §2

[26] = target: T26, FX activation peptide 12-mer …; test: peptide ELISA
Method: as §1, §2

[27] = target: T27, FX activation peptide 12-mer …; test: peptide ELISA
Method: as §1, §2

[28] = target: T28, FX activation peptide 12-mer …; test: peptide ELISA
Method: as §1, §2

[29] = target: T29, FX activation peptide 12-mer …; test: peptide ELISA
Method: as §1, §2

human activated Factor X = human activated Factor X (human, UniProt P00742 41-179; P00742 235-488); test: cell-based or functional assay
Chain of human activated Factor X (P00742 41-179, chain 1 of 2): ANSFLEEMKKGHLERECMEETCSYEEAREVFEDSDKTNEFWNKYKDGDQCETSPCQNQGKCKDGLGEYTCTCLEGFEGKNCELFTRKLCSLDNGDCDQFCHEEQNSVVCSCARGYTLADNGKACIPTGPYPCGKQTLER
Chain of human activated Factor X (P00742 235-488, chain 2 of 2): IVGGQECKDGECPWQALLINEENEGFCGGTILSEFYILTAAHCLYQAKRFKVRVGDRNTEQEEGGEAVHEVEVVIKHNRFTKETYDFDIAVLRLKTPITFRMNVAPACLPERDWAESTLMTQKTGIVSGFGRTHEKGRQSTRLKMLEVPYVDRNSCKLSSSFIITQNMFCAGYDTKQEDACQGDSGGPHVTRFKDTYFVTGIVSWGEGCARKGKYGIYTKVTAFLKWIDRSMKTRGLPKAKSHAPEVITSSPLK

[30] = target: T30, FX activation peptide 12-mer …; test: peptide ELISA
Method: as §1, §2

[31] = target: T31, FX activation peptide 12-mer …; test: peptide ELISA
Method: as §1, §2

[32] = target: T32, FX activation peptide 12-mer …; test: peptide ELISA
Method: as §1, §2

Binder | ELISA signal relative to background [1] | ELISA signal relative to background [2] | ELISA signal relative to background [3] | ELISA signal relative to background [4] | ELISA signal relative to background [5] | ELISA signal relative to background [6] | ELISA signal relative to background [7] | ELISA signal relative to background [8] | ELISA signal relative to background [9] | ELISA signal relative to background [10] | ELISA signal relative to background [11] | ELISA signal relative to background [12] | ELISA signal relative to background [14] | ELISA signal relative to background [15] | ELISA signal relative to background [16] | ELISA signal relative to background [17] | ELISA signal relative to background [18] | ELISA signal relative to background [19] | ELISA signal relative to background [20] | ELISA signal relative to background [21] | other results
B1 | 0.88 | 0.9 | 0.97 | 0.89 | 0.85 | 0.85 | 0.87 | 0.85 | 0.99 | 1.13 | 0.93 | 0.93 | 0.91 | 1.03 | 0.92 | 0.88 | 0.94 | 0.82 | 0.93 | 0.88 | ELISA signal relative to background [13]: 1.03; ELISA signal relative to background [22]: 1; ELISA signal relative to background [23]: 0.9; ELISA signal relative to background [24]: 0.9; ELISA signal relative to background [25]: 0.94; ELISA signal relative to background [26]: 0.91; ELISA signal relative to background [27]: 0.82; ELISA signal relative to background [28]: 0.87; ELISA signal relative to background [29]: 0.92; FXa amidolytic activity (relative to free FXa, fold) (human activated Factor X): 1.06 fold
B2 | 0.78 | 0.73 | 0.88 | 0.74 | 0.87 | 0.75 | 0.77 | 0.7 | 0.85 | 0.81 | 0.79 | 0.79 | 0.86 | 0.89 | 0.84 | 0.82 | 0.81 | 0.73 | 0.84 | 0.74 | ELISA signal relative to background [13]: 0.8; ELISA signal relative to background [30]: 0.99; ELISA signal relative to background [22]: 0.91; ELISA signal relative to background [23]: 0.73; ELISA signal relative to background [24]: 0.8; ELISA signal relative to background [25]: 1.04; ELISA signal relative to background [26]: 0.89; ELISA signal relative to background [27]: 0.69; ELISA signal relative to background [28]: 0.75; ELISA signal relative to background [29]: 0.76; FXa amidolytic activity (relative to free FXa, fold) (human activated Factor X): 1.05 fold
B3 | 0.88 | 0.8 | 1.05 | 0.88 | 0.92 | 0.87 | 0.91 | 0.88 | 0.89 | 3.08 | 0.97 | 0.88 | 0.98 | 1.1 | 1.05 | 1 | 0.96 | 0.83 | 1.02 | 1 | ELISA signal relative to background [30]: 4.38; ELISA signal relative to background [31]: 4.84; ELISA signal relative to background [22]: 1.13; ELISA signal relative to background [32]: 3.13; ELISA signal relative to background [23]: 0.86; ELISA signal relative to background [24]: 0.93; ELISA signal relative to background [25]: 1.08; ELISA signal relative to background [26]: 0.97; ELISA signal relative to background [27]: 0.88; ELISA signal relative to background [28]: 0.77; ELISA signal relative to background [29]: 0.96; FXa amidolytic activity (relative to free FXa, fold) (human activated Factor X): 1.05 fold
B4 | 0.98 | 1.33 | 1.09 | 0.96 | 1.13 | 1.06 | 0.98 | 1.1 | 1.2 | 1.12 | 0.98 | 1.11 | 1.24 | 1.28 | 0.95 | 1.05 | 1.08 | 1.06 | 0.99 | 1.06 | ELISA signal relative to background [13]: 1.1; ELISA signal relative to background [31]: 9.12; ELISA signal relative to background [22]: 0.99; ELISA signal relative to background [32]: 8.27; ELISA signal relative to background [23]: 1.24; ELISA signal relative to background [24]: 1.05; ELISA signal relative to background [25]: 1.13; ELISA signal relative to background [26]: 1.08; ELISA signal relative to background [27]: 1.05; ELISA signal relative to background [28]: 1.12; ELISA signal relative to background [29]: 0.92; FXa amidolytic activity (relative to free FXa, fold) (human activated Factor X): 1.11 fold
